Measured values reported in the RNAGym collection of RNA variant scans (doi:10.1073/pnas.2313332121).

B1: TPR t1 (parent)
chain: GACCAAUCUGCCCUCAGAGCUCGAGAACAUCUUCGGAUGCAGAGGAGGCAGGCUUCGGUGGCGCGAUAGCGCCAACGUCCUCAACCUCCAAUGCAUCCCACCACAUGAUGAUGCCUGAAGAGCCUUGGUUUUUUG

Variants of: B1
Experiment: polymerase ribozyme fitness, log enrichment relative to wild type (log ratio); higher = more active; in vitro selection for triplet polymerase activity
How it was run: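 Fitness is a logarithmic measure of how a genotype enriched relative to the wild type, with replicate averages weighted by inverse variance. The logarithm uses base 2, and enrichment came from Illumina sequencing of input and output libraries. Those libraries were PCR-built, transcribed mutants of each subunit of a heterodimeric triplet polymerase ribozyme, passed through one triplicate in vitro selection round that included frozen incubation at −7 °C, gel excision of extended constructs and streptavidin-bead capture. Genotypes were kept only if they had ≥10 input reads and ≥1 read per output.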

Going from G48U C73G G110U G120U to C82G C88A, the “polymerase ribozyme fitness (log ratio)” value rises from -4.95 to -1.21.

First: G63U A83G
Second: C4G G52A C72U A91U A119U
The “polymerase ribozyme fitness (log ratio)” value of the first is higher: -1.76 for the first, -4.02 for the second.

Going from G19U A43G to C12G G36A C53A A74G C89U, the “polymerase ribozyme fitness (log ratio)” value rises from -2.34 to -1.5.

Going from C3U C12U C72U C85A to C53A C80U U106A, the “polymerase ribozyme fitness (log ratio)” value falls from -1.01 to -5.29.

First: C20U G117A
Second: C11A G61U C102U
The “polymerase ribozyme fitness (log ratio)” value of the first is higher: -2.72 for the first, -3.03 for the second.

Going from C4U G10A C11G G69U to C28A C124A U125C G127U, the “polymerase ribozyme fitness (log ratio)” value falls from -0.117 to -3.12.

Going from A37U G69U to G45C, the “polymerase ribozyme fitness (log ratio)” value falls from -0.0814 to -1.57.

Compared with C11A C56A C64U U126G, C64G A66G G69C C82A A105U is higher in “polymerase ribozyme fitness (log ratio)” value: -4.75 for the first, -3.01 for the second.

First: G48A C62A U96A
Second: C11G C22G C53G C82U
The “polymerase ribozyme fitness (log ratio)” value of the first is higher: -2.62 for the first, -3.79 for the second.

Going from C89A G127C U133G to G17A C101G, the “polymerase ribozyme fitness (log ratio)” value falls from -4.42 to -5.5.

Compared with C12U A43U G77A C85U U112A, G25C U32C G45A C49A A68U G69A A121U is lower in “polymerase ribozyme fitness (log ratio)” value: -0.51 for the first, -7.08 for the second.

Compared with U54G C85G G113C A118C, C34U G61U is higher in “polymerase ribozyme fitness (log ratio)” value: -4.79 for the first, -3.87 for the second.

First: C11U G35U A111U G122C
Second: C72U C88U
The “polymerase ribozyme fitness (log ratio)” value of the first is lower: -6.28 for the first, 0.0321 for the second.

First: U32A C56G G60C C62A A121C
Second: U30C C56G G60U A84C
The “polymerase ribozyme fitness (log ratio)” value of the first is lower: -6.89 for the first, -3.79 for the second.

Going from G35C A111C to C11G C64G, the “polymerase ribozyme fitness (log ratio)” value falls from -4.47 to -6.21.

Compared with C20U G117U A119U, G69U C79A C88G is higher in “polymerase ribozyme fitness (log ratio)” value: -4.12 for the first, -0.43 for the second.

First: C20G A46U A118G
Second: U54A A95C
The “polymerase ribozyme fitness (log ratio)” value of the first is lower: -5.92 for the first, -0.767 for the second.

Going from G60A G69C C80G G110U G120C to C102G C104U, the “polymerase ribozyme fitness (log ratio)” value rises from -6.82 to -6.12.

First: G45A G61C
Second: C40A G69U
The “polymerase ribozyme fitness (log ratio)” value of the first is lower: -1.97 for the first, -0.43 for the second.

Compared with C15U G135U, G10A A74C U78A A111G is higher in “polymerase ribozyme fitness (log ratio)” value: -2.12 for the first, -0.232 for the second.

First: C85U U106G
Second: U32C G39U C56U G58C
The “polymerase ribozyme fitness (log ratio)” value of the first is lower: -2.74 for the first, -0.298 for the second.

First: U81G C82A
Second: U7A C11G C12U A18C A29G G47U G60C
The “polymerase ribozyme fitness (log ratio)” value of the first is higher: -2 for the first, -5.79 for the second.

First: C8G U81A
Second: C28U G48A
The “polymerase ribozyme fitness (log ratio)” value of the first is higher: 0.387 for the first, -3.13 for the second.

C11G C15A A37U C99U A111C U112C and A18U C62G C82A C114A U131A G135A are within 0.2 log units of each other in “polymerase ribozyme fitness (log ratio)” value: -4.47 for the first, -4.32 for the second.

First: C8G C49A U96A
Second: C56A G110C
The “polymerase ribozyme fitness (log ratio)” value of the first is higher: -0.377 for the first, -2.63 for the second.

First: C49A G107U
Second: A5U G39A C73A U78C
The “polymerase ribozyme fitness (log ratio)” value of the first is lower: -4.61 for the first, -0.828 for the second.

First: A90U C98G C114G G117C C123U U126C
Second: A6U C12A
The “polymerase ribozyme fitness (log ratio)” value of the first is lower: -5.73 for the first, 0.811 for the second.

Compared with C72G U130A, G39A C49G G61A C89U C102G is lower in “polymerase ribozyme fitness (log ratio)” value: -0.458 for the first, -7.76 for the second.

Going from C73A A90U to A29C G51A, the “polymerase ribozyme fitness (log ratio)” value falls from -3.12 to -6.28.

Going from A5C U32C C53U G57A C85A to G47U G48U, the “polymerase ribozyme fitness (log ratio)” value rises from -3.78 to -2.67.

Compared with G110U A118G, C3U A29G A46U G61A A66U A83G C86A C101U U132A is lower in “polymerase ribozyme fitness (log ratio)” value: -1.01 for the first, -4.12 for the second.

Compared with C64U A90U, G47U U92A is lower in “polymerase ribozyme fitness (log ratio)” value: -0.99 for the first, -5.48 for the second.

First: A26U G47A C86G
Second: A27G G110U
The “polymerase ribozyme fitness (log ratio)” value of the first is higher: -2.67 for the first, -3.11 for the second.

First: G47U G61A
Second: C8A U55G C114A C115U
The “polymerase ribozyme fitness (log ratio)” value of the first is higher: -0.861 for the first, -2.83 for the second.

Compared with G57A G113C U133A, U14A U78C is higher in “polymerase ribozyme fitness (log ratio)” value: -3.86 for the first, -2.86 for the second.

First: C20U C62A G93A U129A
Second: G52U C73U
The “polymerase ribozyme fitness (log ratio)” value of the first is lower: -4.93 for the first, -0.9 for the second.

First: G61A G63U
Second: A2C U54A C72G C104U G113A
The “polymerase ribozyme fitness (log ratio)” value of the first is lower: -3.75 for the first, -2.82 for the second.

C62G G69U and C72U C80A are within 0.2 log units of each other in “polymerase ribozyme fitness (log ratio)” value: -5.17 for the first, -5.24 for the second.

First: C4U C70U C85G C86U
Second: A18C U21A C72G G93C
The “polymerase ribozyme fitness (log ratio)” value of the first is higher: -2.03 for the first, -4.4 for the second.

Going from G25U A43C U78G A121G to G10A C62U, the “polymerase ribozyme fitness (log ratio)” value rises from -5.96 to 0.124.

Compared with G58C C123G G128A, G60U A121C is higher in “polymerase ribozyme fitness (log ratio)” value: 0.535 for the first, 1.48 for the second.

For A5G C20U C53A G58A C99U, the “polymerase ribozyme fitness (log ratio)” value was -4.64.
